Biological target: GST-LRRK2 WD40 G2385R (human) (UniProt Q5S007)
Assay: affinity purification with mass spectrometry; 5 µg GST fusion protein on glutathione-Sepharose incubated with adult mouse brain lysate or crude SV fraction (LP2) (1 mg protein) 2 h at 4 °C; washes 150 mM NaCl, 2 mM EDTA, 50 mM Tris-HCl, 0.2% Triton, pH 7.4; LC-MS/MS with label-free quantification, 4 samples per condition (GST-control, GST-WD40, GST-WD40-G2385R)

Chain of GST-LRRK2 WD40 G2385R (human) (Q5S007 whole entry G2385R, the tested form may be a part): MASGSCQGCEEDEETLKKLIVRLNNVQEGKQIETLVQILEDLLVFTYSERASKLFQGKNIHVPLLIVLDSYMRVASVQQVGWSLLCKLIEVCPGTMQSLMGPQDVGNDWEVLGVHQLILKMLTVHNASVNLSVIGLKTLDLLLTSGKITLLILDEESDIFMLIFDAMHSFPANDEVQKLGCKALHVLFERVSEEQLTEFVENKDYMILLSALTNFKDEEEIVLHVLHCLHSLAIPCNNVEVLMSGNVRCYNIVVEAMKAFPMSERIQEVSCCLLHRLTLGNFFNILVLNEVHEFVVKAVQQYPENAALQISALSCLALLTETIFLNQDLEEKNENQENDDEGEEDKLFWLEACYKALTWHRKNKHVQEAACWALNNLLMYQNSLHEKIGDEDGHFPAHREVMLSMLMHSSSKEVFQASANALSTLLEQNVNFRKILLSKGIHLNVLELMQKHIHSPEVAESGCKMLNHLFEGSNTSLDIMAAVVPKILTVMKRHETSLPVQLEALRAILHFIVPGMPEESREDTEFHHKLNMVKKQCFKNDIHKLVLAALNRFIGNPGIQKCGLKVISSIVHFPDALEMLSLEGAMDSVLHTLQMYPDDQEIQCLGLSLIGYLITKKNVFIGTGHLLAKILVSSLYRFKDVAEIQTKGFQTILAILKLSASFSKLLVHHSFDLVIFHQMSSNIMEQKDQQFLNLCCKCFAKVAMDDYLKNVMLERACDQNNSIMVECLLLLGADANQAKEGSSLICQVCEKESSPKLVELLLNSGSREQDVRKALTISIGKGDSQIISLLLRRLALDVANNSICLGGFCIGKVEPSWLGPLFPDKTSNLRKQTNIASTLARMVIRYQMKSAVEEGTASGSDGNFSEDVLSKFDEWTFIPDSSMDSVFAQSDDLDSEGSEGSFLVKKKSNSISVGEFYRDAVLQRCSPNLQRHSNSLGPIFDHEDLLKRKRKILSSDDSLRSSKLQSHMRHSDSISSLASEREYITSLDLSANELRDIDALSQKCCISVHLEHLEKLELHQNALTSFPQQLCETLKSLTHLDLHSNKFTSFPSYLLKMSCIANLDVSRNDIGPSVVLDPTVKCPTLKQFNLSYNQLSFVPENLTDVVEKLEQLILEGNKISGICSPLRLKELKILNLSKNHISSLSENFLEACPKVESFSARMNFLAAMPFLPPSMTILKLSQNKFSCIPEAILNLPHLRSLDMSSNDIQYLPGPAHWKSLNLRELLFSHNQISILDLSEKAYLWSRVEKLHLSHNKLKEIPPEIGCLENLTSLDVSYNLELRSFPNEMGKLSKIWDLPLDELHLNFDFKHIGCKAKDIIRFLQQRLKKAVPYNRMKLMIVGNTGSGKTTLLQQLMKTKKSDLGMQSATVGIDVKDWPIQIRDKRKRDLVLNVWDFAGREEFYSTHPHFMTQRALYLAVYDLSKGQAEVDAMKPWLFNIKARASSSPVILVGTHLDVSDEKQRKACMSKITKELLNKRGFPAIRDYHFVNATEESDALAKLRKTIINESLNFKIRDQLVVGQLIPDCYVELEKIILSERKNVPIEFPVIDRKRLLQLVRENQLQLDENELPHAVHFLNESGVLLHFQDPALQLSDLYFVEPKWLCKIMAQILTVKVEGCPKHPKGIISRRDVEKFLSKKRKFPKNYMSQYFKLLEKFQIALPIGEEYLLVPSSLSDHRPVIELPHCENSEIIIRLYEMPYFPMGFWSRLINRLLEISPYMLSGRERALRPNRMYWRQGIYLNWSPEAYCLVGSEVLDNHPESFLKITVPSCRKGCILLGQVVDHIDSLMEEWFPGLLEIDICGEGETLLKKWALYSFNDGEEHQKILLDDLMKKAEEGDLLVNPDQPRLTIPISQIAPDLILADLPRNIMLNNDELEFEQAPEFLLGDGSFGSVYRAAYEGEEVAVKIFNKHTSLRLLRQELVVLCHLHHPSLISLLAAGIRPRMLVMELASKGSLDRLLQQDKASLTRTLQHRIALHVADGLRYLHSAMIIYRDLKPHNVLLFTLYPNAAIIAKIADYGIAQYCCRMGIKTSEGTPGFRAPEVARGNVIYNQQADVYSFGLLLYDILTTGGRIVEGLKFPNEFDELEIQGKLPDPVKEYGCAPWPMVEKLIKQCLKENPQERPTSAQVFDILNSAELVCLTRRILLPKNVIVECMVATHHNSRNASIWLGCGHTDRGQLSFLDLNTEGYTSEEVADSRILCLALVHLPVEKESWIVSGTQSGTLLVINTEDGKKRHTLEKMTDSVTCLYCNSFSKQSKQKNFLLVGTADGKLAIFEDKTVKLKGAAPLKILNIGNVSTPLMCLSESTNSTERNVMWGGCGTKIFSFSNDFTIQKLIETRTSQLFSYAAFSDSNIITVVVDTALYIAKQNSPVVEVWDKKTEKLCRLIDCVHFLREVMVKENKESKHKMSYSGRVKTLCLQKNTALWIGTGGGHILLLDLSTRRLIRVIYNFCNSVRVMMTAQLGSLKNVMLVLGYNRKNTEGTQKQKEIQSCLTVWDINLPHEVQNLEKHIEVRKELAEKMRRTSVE

Binder | G2385R/WT (ratio of abundance in G2385R versus wild-type bait)
14-3-3 protein theta (natural protein) MEKTELIQKAKLAEQAERYDDMATCMKAVTEQGAELSNEERNLLSVAYKNVVGGRRSAWRVISSIEQKTDTSDKKLQLIKDYREKVESELRSICTTVLELLDKYLIANATNPESKVFYLKMKGDYFRYLAEVACGDDRKQTIENSQGAYQEAFDISKKEMQPTHPIRLGLALNFSVFYYEILNNPELACTLAKTAFDEAIAELDTLNEDSYKDSTLIMQLLRDNLTLWTSDSAGEECDAAEGAEN | 0.35
CaM kinase-like vesicle-associated protein (natural protein) MPFGCVTLGDKKNYNQPSEVTDRYDLGQVIKTEEFCEIFRAKDKTTGKLHTCKKFQKRDGRKVRKAAKNEIGILKMVKHPNILQLVDVFVTRKEYFIFLELATGREVFDWILDQGYYSERDTSNVVRQVLEAVAYLHSLKIVHRNLKLENLVYYNRLKNSKIVISDFHLAKLENGLIKEPCGTPEYLAPEVVGRQRYGRPVDCWAIGVIMYILLSGNPPFYEEVEEDDYENHDKNLFRKILAGDYEFDSPYWDDISQAAKDLVTRLMEVEQDQRITAEEAISHEWISGNAASDKNIKDGVCAQIEKNFARAKWKKAVRVTTLMKRLRAPEQSGTAATQSASDAATPGAAGGAIAAAAAAAAAGGAASASGASATAATEGGAGCAAKSDDIASADRSATPATDGSATPATDGSVTPATDGSITPATDGSVTPATDRSATPATDGRATPATEESTVPATQSSALPAAKAAATPEPAVAQPDSTALEGATGQAPPSSKGEEATGCAQESQRVETS | 0.58
14-3-3 protein eta (natural protein) MGDREQLLQRARLAEQAERYDDMASAMKAVTELNEPLSNEDRNLLSVAYKNVVGARRSSWRVISSIEQKTMADGNEKKLEKVKAYREKIEKELETVCNDVLALLDKFLIKNCNDFQYESKVFYLKMKGDYYRYLAEVASGEKKNSVVEASEAAYKEAFEISKEHMQPTHPIRLGLALNFSVFYYEIQNAPEQACLLAKQAFDDAIAELDTLNEDSYKDSTLIMQLLRDNLTLWTSDQQDEEAGEGN | 0.52
14-3-3 protein beta/alpha (natural protein) MTMDKSELVQKAKLAEQAERYDDMAAAMKAVTEQGHELSNEERNLLSVAYKNVVGARRSSWRVISSIEQKTERNEKKQQMGKEYREKIEAELQDICNDVLELLDKYLILNATQAESKVFYLKMKGDYFRYLSEVASGENKQTTVSNSQQAYQEAFEISKKEMQPTHPIRLGLALNFSVFYYEILNSPEKACSLAKTAFDEAIAELDTLNEESYKDSTLIMQLLRDNLTLWTSENQGDEGDAGEGEN | 0.37

Next, values leading:

G2385R/WT (ratio of abundance in G2385R versus wild-type bait) | Binder
0.34 | WD repeat-containing protein 1 (natural protein) MPYEIKKVFASLPQVERGVSKILGGDPKGDHFLYTNGKCVILRNIDNPAIADIYTEHAHQVVVAKYAPSGFYIASGDISGKLRIWDTTQKEHLLKYEYQPFAGKIKDIAWTEDSKRIAVVGEGREKFGAVFLWDTGSSVGEITGHNKVINSVDIKQTRPYRLATGSDDNCAAFFEGPPFKFKFTIGDHSRFVNCVRFSPDGNRFATASADGQIFIYDGKTGEKVCALGESKAHDGGIYAISWSPDSTHLLSASGDKTSKIWDVNVNSVVSTFPMGSNVLDQQLGCLWQKDHLLSISLSGYINYLDKNNPSKPLRVIKGHSKSIQCLTVHRNGGKSYIYSGSHDGHINYWDSETGENDSFSGKGHTNQVSRMTVNESEQLVSCSMDDTVRYTNLTLRDYSGQGVVKLDVQPKCVAVGPGGYTVVVCIGQIVLLKDQKKCFSIDNPGYEPEVVAVHPGGDTVAVGGTDGNVRVYSILASTLKDEGKLLEAKGPVTDVAYSHDGAFLAVCDASKVVTVFSVADGYSENNVFYGHHAKIVCLAWSPDNEHFASGGMDMMVYVWTLSDPETKVKIQDAHRLHHVSSLAWLDEHTLVTTSHDASVKEWTITY
0.37 | Profilin-2 (natural protein) MAGWQSYVDNLMCDGCCQEAAIVGYCDAKYVWAATAGGVFQSITPVEIDMIVGKDREGFFTNGLTLGAKKCSVIRDSLYVDGDCTMDIRTKSQGGEPTYNVAVGRAGRVLVFVMGKEGVHGGGLNKKAYSMAKYLRDSGF
0.15 | Guanine deaminase (natural protein) MCAARTPPLALVFRGTFVHSTWTCPMEVLRDHLLGVSDSGKIVFLEESSQQEKLAKEWCFKPCEIRELSHHEFFMPGLVDTHIHAPQYAFAGSNVDLPLLEWLNKYTFPTEQRFRSTDVAEEVYTRVVRRTLKNGTTTACYFGTIHTDSSLILAEITDKFGQRAFVGKVCMDLNDTVPEYKETTEESVKETERFVSEMLQKNYPRVKPIVTPRFTLSCTETLMSELGNIAKTHDLYIQSHISENREEIEAVKSLYPSYKNYTDVYDKNNLLTNKTVMAHGCYLSEEELNIFSERGASIAHCPNSNLSLSSGLLNVLEVLKHKVKIGLGTDVAGGYSYSMLDAIRRAVMVSNVLLINKVNEKNLTLKEVFRLATLGGSQALGLDSEIGNFEVGKEFDALLINPRASDSPIDLFYGDFVGDISEAVIQKFLYLGDDRNIEEVYVGGKQVVPFSSSV

From PMC5511190
